Results as given in article PMC6763540 (2013).

T1: Tie2 (Homo sapiens, UniProt Q02763)
T1 chain: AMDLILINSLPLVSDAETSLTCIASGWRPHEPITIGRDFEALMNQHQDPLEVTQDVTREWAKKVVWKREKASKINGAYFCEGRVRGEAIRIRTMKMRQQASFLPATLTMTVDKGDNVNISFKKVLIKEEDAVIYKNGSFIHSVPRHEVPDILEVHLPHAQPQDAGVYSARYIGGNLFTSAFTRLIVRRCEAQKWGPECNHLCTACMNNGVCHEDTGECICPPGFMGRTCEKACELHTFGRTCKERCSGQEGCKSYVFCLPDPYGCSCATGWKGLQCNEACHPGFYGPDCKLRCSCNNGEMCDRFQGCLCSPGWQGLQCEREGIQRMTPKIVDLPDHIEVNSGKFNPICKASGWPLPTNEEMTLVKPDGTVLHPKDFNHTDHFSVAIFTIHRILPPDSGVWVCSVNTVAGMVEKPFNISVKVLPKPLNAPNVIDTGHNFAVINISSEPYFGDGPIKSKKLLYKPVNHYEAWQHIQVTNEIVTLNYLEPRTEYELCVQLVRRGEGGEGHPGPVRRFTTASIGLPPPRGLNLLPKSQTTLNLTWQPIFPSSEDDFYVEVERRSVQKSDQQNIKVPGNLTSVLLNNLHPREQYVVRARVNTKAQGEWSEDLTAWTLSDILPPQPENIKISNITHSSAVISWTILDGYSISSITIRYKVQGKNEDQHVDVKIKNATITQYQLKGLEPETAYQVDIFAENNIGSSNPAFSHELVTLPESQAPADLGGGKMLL

B1: Angiopoietin-2 (Ang2) (protein)
chain: YNNFRKSMDSIGKKQYQVQHGSCSYTFLLPEMDNCRSSSSPYVSNAVQRDAPLEYDDSVQRLQVLENIMENNTQWLMKLENYIQDNMKKEMVEIQQNAVQNQTAVMIEIGTNLLNQTAEQTRKLTDVEAQVLNQTTRLELQLLEHSLSTNKLEKQILDQTSEINKLQDKNSFLEKKVLAMEDKHIIQLQSIKEEKDQLQVLVSKQNSIIEELEKKIVTATVNNSVLQKQQHDLMETVNNLLTMMSTSNSAKDPTVAKEEQISFRDCAEVFKSGHTTNGIYTLTFPNSTEEIKAYCDMEAGGGGWTIIQRREDGSVDFQRTWKEYKVGFGNPSGEYWLGNEFVSQLTNQQRYVLKIHLKDWEGNEAYSLYEHFYLSSEELNYRIHLKGLTGTAGKISSISQPGNDFSTKDGDNDKCICKCSQMLTGGWWFDACGPSNLNGMYYPQRQNTNKFNGIKWYYWKGSGYSLKATTMMIRPADF
B2: Angiopoietin-1 (Ang1) (protein)
chain: HIGCSNQRRSPENSGRRYNRIQHGQCAYTFILPEHDGNCRESTTDQYNTNALQRDAPHVEPDFSSQKLQHLEHVMENYTQWLQKLENYIVENMKSEMAQIQQNAVQNHTATMLEIGTSLLSQTAEQTRKLTDVETQVLNQTSRLEIQLLENSLSTYKLEKQLLQQTNEILKIHEKNSLLEHKILEMEGKHKEELDTLKEEKENLQGLVTRQTYIIQELEKQLNRATTNNSVLQKQQLELMDTVHNLVNLCTKEGVLLKGGKREEEKPFRDCADVYQAGFNKSGIYTIYINNMPEPKKVFCNMDVNGGGWTVIQHREDGSLDFQRGWKEYKMGFGNPSGEYWLGNEFIFAITSQRQYMLRIELMDWEGNRAYSQYDRFHIGNEKQNYRLYLKGHTGTAGKQSSLILHGADFSTKDADNDNCMCKCALMLTGGWWFDACGPSNLNGMFYTAGQNHGKLNGIKWHYFKGPSYSLRSTTMMIRPLDF
B3: activated protein C (APC) (protein)
chain 1: ANSFLEELRHSSLERECIEEICDFEEAKEIFQNVDDTLAFWSKHVDGDQCLVLPLEHPCASLCCGHGTCIDGIGSFSCDCRSGWEGRFCQREVSFLNCSLDNGGCTHYCLEEVGWRRCSCAPGYKLGDDLLQCHPAVKFPCGRPWKRMEKKRSHL
chain 2: LIDGKMTRRGDSPWQVVLLDSKKKLACGAVLIHPSWVLTAAHCMDESKKLLVRLGEYDLRRWEKWELDLDIKEVFVHPNYSKSTTDNDIALLHLAQPATLSQTIVPICLPDSGLAERELNQAGQETLVTGWGYHSSREKEAKRNRTFVLNFIKIPVVPHNECSEVMSNMVSENMLCAGILGDRQDACEGDSGGPMVASFHGTWFLVGLVSWGEGCGLLHNYGVYTKVSRYLDWIHGHIRDKEAPQKSWAP

Biological target: T1, Tie2
Test: SPR (Biacore)

| Kd [pM] | Binder |
| --- | --- |
| 32 | B1 |
| 2 | B2 |
| 3 | B3 |
